The values that follow come from US20250114433A1 (published 2025).

Test [1] has as its target HLA-A2 (DM)/KRAS (5-14_G12V)-peptide multimer. The test can be described thus: flow cytometry, Tet+ gate frequency; A2DM/KRAS G12V 5-14 tetramer at 1:50 [Continued]. On the technique in general: A flow cytometer gives signals particle by particle.
For test [2] the target is unchanged. The test can be described thus: flow cytometry, Tet+ gate frequency; A2DM/KRAS G12V 5-14 tetramer at 1:400 [Continued].
In test [3] the target is A2/KRAS G12V 5-14 (human), A*02:0. The test can be described thus: flow cytometry, Tet+ gate frequency; A2/KRAS G12V 5-14 tetramer at 1:400; no-tetramer control Tet+ 0.
Test [4] concerns the target HLA-A2 (DM)/KRAS (5-14_G12V)-peptide multimer. The test can be described thus: flow cytometry, Tet+ gate frequency; A2DM/KRAS G12V 5-14 tetramer at 1:100 [Continued].
Test [5] addresses T1, KRAS G12V (same sequence in NRAS and HRAS G12V) peptide on HLA-A*11:01 (human).
T1 peptide: VVGAVGVGK
The test can be described thus: cytokine release.

In test [6] the target is T2, KRAS G12V (same sequence in NRAS and HRAS G12V) peptide on HLA-A*11:01 (human).
T2 peptide: VVVGAVGVGK
The test can be described thus: cytokine release.

Test [7] concerns the target T3, KRAS G12D (same sequence in NRAS and HRAS G12D) peptide on HLA-A*11:01 (human).
T3 peptide: VVVGADGVGK
In words: cytokine release.

Test [8] has as its target KRAS 7-16(G12V) SCT tetramer #7. In words: flow cytometry, tetramer labelling of TCR-transduced donor X CD8+ T cells, Tetramer APC against CD8 ef450 [Continued].
For test [9], the target named is KRAS 7-16(G12D) SCT tetramer #2 (human). The description is as above.
The target of test [10] is HLA-A2 (DM)/KRAS (5-14_G12V)-peptide multimer. The test can be described thus: flow cytometry, Tet+ gate frequency; A2DM/KRAS G12V 5-14 tetramer at 1:200 [Continued].

B1: TCR13 (TCR, V domains shown)
Valpha: QKEVEQDPGPLSVPEGAIVSLNCTYSNSAFQYFMWYRQYSRKGPELLMYTYSSGNKEDGRFTAQVDKSSKYISLFIRDSQPSDSATYLCAMSASAAGNKLTFGGGTRVLVKP
Vbeta: EADIYQTPRYLVIGTGKKITLECSQTMGHDKMYWYQQDPGMELHLIHYSYGVNSTEKGDLSSESTVSRIRTEHFPLTLESARPSHTSQYLCASSEGLYNEQFFGPGTRLTVL
As for B1, the Tet+ in [1] amounted to 58.7; in test [2] it was 9.2; in [3] it was 84.6; in test [4] it was 45; in test [10] it was 33.7. The binding result in test [5] was “no recognition”; in test [6], “no recognition”; in [7] it was “recognises”. Moreover, the tetramer gate (share of cells in the gate; unit not given) turned out to be 5.19 in [8] and 82.8 in [9].
